Test results published in article PMC7214410, “A deubiquitylase with an unusually high-affinity ubiquitin-binding domain from the scrub typhus pathogen Orientia tsutsugamushi” (Nature Communications, 2020).
Changes are numbered by the printed parent chain. In names and notes the source's numbering stands.

B1: OtDUB_(1–259) (domain or fragment)
chain: GMANDQDLSNPEYLYTEDDINQLLKHYLGLDDRISIIQHVALNESLLLKQTLHQVLSDIFSGMQEKAVIPLHTGNNHWVAMAIKKGMNDDIVISYNDPMGVSIDDKVTLINCIKELCPGAKINDLQTVQQTNVYDCGPFVVDNLIKMSQGQPILSTEEAKQQAQNIRQSQVNFLSENRMITSAAAALADTLLKNNNRITEGVLVDRIFDNKILSVQEKQQLLNNLLDNHIKENKSLTKESLTRMLASTHFVQQQANVLLN
notes: also called OTT_1962 DUB domain with VR-1/UBD; DUB-UBD segment; source: E. coli BL21(DE3), purified (Ni-NTA, TEV cleavage, HiTrap Q, Superdex 75)
B2: OtDUB_(170–264) (the UBD) (domain or fragment)
chain: VNFLSENRMITSAAAALADTLLKNNNRITEGVLVDRIFDNKILSVQEKQQLLNNLLDNHIKENKSLTKESLTRMLASTHFVQQQANVLLNEKFNK
notes: source: E. coli Rosetta DE3, purified (glutathione resin, SEC)
B3: OtDUB_(1–177)-C135A (domain or fragment)
chain: MANDQDLSNPEYLYTEDDINQLLKHYLGLDDRISIIQHVALNESLLLKQTLHQVLSDIFSGMQEKAVIPLHTGNNHWVAMAIKKGMNDDIVISYNDPMGVSIDDKVTLINCIKELCPGAKINDLQTVQQTNVYDAGPFVVDNLIKMSQGQPILSTEEAKQQAQNIRQSQVNFLSENR
B4: GST-UBD_(170–259) (domain or fragment)
chain: VNFLSENRMITSAAAALADTLLKNNNRITEGVLVDRIFDNKILSVQEKQQLLNNLLDNHIKENKSLTKESLTRMLASTHFVQQQANVLLN
notes: also called GST-tagged UBD; OtDUBUBD; source: E. coli BL21(DE3), purified (Ni-NTA, GSTrap HP)
B5: GST-UBD_(170–259) F207D (domain or fragment)
chain: B4 chain with F38D
notes: source: E. coli BL21(DE3), purified (Ni-NTA, GSTrap HP)
B6: GST-UBD_(170–259) D204A/D208A (domain or fragment)
chain: B4 chain with D35A, D39A
notes: also called charge-neutralizing mutant; source: E. coli BL21(DE3), purified (Ni-NTA, GSTrap HP)
B7: GST-UBD_(170–259) N222A/D226A (domain or fragment)
chain: B4 chain with N53A, D57A
notes: as for B6

What was measured:
Settings in all cases: both partners purified
[1] = molecular target: T1, human ubiquitin (His tag cleaved, for the co-crystal) (human, UniProt P0CG48 1-76); test: crystal structure
T1 construct: also called free ubiquitin; UbS1; source: E. coli BL21(DE3), purified (Ni-NTA, TEV cleavage, HiTrap S, Superdex 75)

[2] = molecular target: T2, untagged ubiquitin (UniProt P0CG48 1-76); test: ITC
T2 construct: also called mono-ubiquitin; Mono Ub; source: E. coli, purified (heated to 85 °C, SP-Sepharose, Superdex 75)

[3] = molecular target: T2, untagged ubiquitin; test: ITC; remark: listed apart in the source
[4] = molecular target: T3, 6His-ubiquitin (human, UniProt P0CG48 1-76); test: pull-down; GST-tagged UBD (25 µM) mixed with His-tagged ubiquitin (75 µM) in 25 mM Tris-HCl pH 8.0, 100 mM NaCl, 0.1 mM TCEP; glutathione sepharose 4B, 1 h at 2 °C; eluted with glutathione, Coomassie
T3 construct: also called His-tagged human ubiquitin; His-tagged ubiquitin; source: E. coli BL21(DE3), purified (Ni-NTA)

| Binder | binding result [4] | other results |
| --- | --- | --- |
| B1 | – | binding result [1]: binds |
| B2 | – | Kd [2]: 0.0053 ± 0.0039 µM |
| B3 | – | Kd [3]: 6.3 ± 0.2 µM |
| B4 | binds | – |
| B5 | binds | – |
| B6 | binds | – |
| B7 | binds | – |
